To fix the notation:
B1: CPEB3 Ribozyme (parent)
chain: GGGGGCCACAGCAGAAGCGUUCACGUCGCGGCCCCUGUCAGAUUCUGGUGAAUCUGCGAAUUCUGCUGU

Among the data in the RNAGym collection of RNA variant scans (doi:10.7554/elife.80360) are self-cleavage values, retold here.

The variants in this data set derive from B1. The experiment in a line: self-cleavage, relative activity (ratio to wild type); higher = more cleavage; co-transcriptional.
As to U43A A52U, the self-cleavage amounted to 0.926.
As for U44A U55C, the self-cleavage came to 0.496.
As for U44A U55A, the figure is 0.566.
The result for U44G G65C reads 0.445; that for U44G G65A, 0.812.
The result for U44G G65U reads 0.674; that for U43A A51U, 0.939.
Regarding U43A A51G, the self-cleavage was 0.928.
The result for U44C G56C reads 0.351; that for U44C G56U, 0.388; that for U44C U55A, 0.524.
For the variant U44C U55C, the self-cleavage came out at 0.473.
The result for U44A U61C reads 0.662; that for U44A U61A, 0.843; that for U43C U53A, 0.92.
The result for U43G U44A reads 0.971.
As for U43G U44C, the figure is 0.936; as for U44G C63U, 0.918.
Consider U44G C63A, for which the self-cleavage came to 0.835.
Turning to U44A G50C, the self-cleavage is 1.
The result for U44A G50U reads 0.984.
As for U44C C66G, the figure is 0.464.
Consider U44C C66A, for which the self-cleavage was 0.502.
As for U44C C66U, the figure is 0.928; as for A42U U55G, 0.276.
The result for A42U U55A reads 0.485.
As for U44A A59G, the figure is 0.924; as for U44A A59U, 0.725; as for U44A A59C, 0.638.
In the case of U44C U46C, the self-cleavage came out at 0.972.
As for U44C U46A, the figure is 0.958; as for U43C G56A, 0.861.
As for U43C G56C, the figure is 0.494; as for U44G G50C, 0.949.
With U44G G50U, the self-cleavage stood at 0.98.
As for U44A U46A, the figure is 0.99; as for U44A U64G, 0.8.
Consider U44A U64A, for which the self-cleavage amounted to 0.843.
As for U44C C57G, the figure is 0.362; as for U44C C57U, 0.419; as for U44C C57A, 0.301.
As for U44A G65U, the figure is 0.588.
As for U44A G65A, the figure is 0.755.
With U44A G65C, the self-cleavage turned out to be 0.422.
As for U43A U55A, the figure is 0.257.
The result for U43G U64C reads 0.409; that for U43G U64A, 0.506; that for U43C U64A, 0.713.
The result for U43C U64C reads 0.671; that for U43C U64G, 0.825.
For the variant U44A G58C, the self-cleavage is 1.01.
The result for U43A U53G reads 0.773; that for U43G A52C, 0.962.
In the case of U43G A52U, the self-cleavage was 0.992.
The result for U43G A52G reads 0.911; that for U43G G68U, 0.901.
The result for U43G G68A reads 0.948.
Regarding U44C G68C, the self-cleavage was determined as 0.949.
U44C G68A: the self-cleavage was found to be 0.979.
The result for U43C G48U reads 0.998; that for U43C G48C, 1.
As for U43G G47C, the figure is 0.936.
The result for U43A G68U reads 0.973; that for U43A G68C, 1.01.
As for U43G U53A, the self-cleavage worked out at 0.8.
The result for U43G U53G reads 0.854; that for A42U U61G, 0.448; that for A42U U61A, 0.744.
The result for U44G G47A reads 0.954.
The result for U44G G47C reads 0.962; that for U44G G47U, 1.01.
Turning to U44A A51U, the self-cleavage is 0.998.
In the case of U44G U62C, the self-cleavage amounted to 0.842.
The result for U44C U62G reads 0.664; that for U44C U62C, 0.572; that for U43A U64A, 0.591.
The result for U43A U64C reads 0.649; that for U43G C66U, 0.794; that for U43G C66A, 0.319.
Turning to U44A C57G, the self-cleavage is 0.365.
The result for U44A C57A reads 0.383; that for U44A C57U, 0.397; that for U44A G56A, 0.849.
The result for U44A G56C reads 0.383.
The result for U43A G48U reads 0.983.
Turning to U43A G48A, the self-cleavage worked out at 1.04.
With A42U U53A, the self-cleavage was 1.02.
As for A42U U53G, the figure is 1; as for U44C G65C, 0.452.
The result for A42U U64G reads 0.722; that for A42U U64A, 0.726; that for U43G G56C, 0.329.
As for U43G G56A, the figure is 0.481.
U43C A51C: the self-cleavage came to 0.968.
As for U43A C66A, the figure is 0.416.
The result for U43A C66U reads 0.831; that for U43G A60G, 0.556; that for U43G A60U, 0.419.
As for U43G A60C, the figure is 0.498; as for U43G U61C, 0.332; as for A42U U69A, 1.
As to A42U U69C, the self-cleavage turned out to be 1.04.
The result for U43C U49C reads 0.984; that for U44C C45A, 0.998; that for U44C C45U, 0.955.
The result for U43C G58U reads 0.975; that for U43C G58A, 0.943.
Take U43G G65C: the self-cleavage was 0.432.
U43G G65U: the self-cleavage is 0.352.
The result for U43C U69A reads 1.01; that for U44C U69G, 1.02; that for U44C U69A, 0.927.
As for U44C U69C, the figure is 1.07; as for U44G G58A, 0.922; as for U44G G58U, 0.959.
The result for U44G G58C reads 0.944; that for U43A G65A, 0.49.
For U43A G65C, the self-cleavage was 0.349.
Regarding U43A G65U, the self-cleavage is 0.392.
As for U43C, the figure is 0.981; as for U43G, 0.929; as for U43A, 0.953.
Turning to U44G C45A, the self-cleavage amounted to 0.932.
The result for U43A U46G reads 0.943; that for U43A U46C, 0.952.
The result for U43A U46A reads 0.958.
As for U44G G56U, the figure is 0.666.
Take U44A C63A: the self-cleavage amounted to 0.731.
The result for U43A U67A reads 0.919.
As for U43A U67C, the figure is 0.895; as for U44C A51U, 0.919; as for U44C A51C, 0.99.
The result for U44C A51G reads 0.693; that for U44C G47U, 1.01; that for U44C G47A, 0.979.
U44A U67A: the self-cleavage was 0.936.
The result for U44A U67G reads 0.984; that for U44A U67C, 0.973.
As to U44A U62C, the self-cleavage amounted to 0.774.
As for U44A U62G, the self-cleavage was found to be 0.685.
The result for U43G C57A reads 0.293; that for U43G G58C, 0.959.
With U43G G58U, the self-cleavage came to 0.946.
As for U44G A52G, the figure is 0.943; as for U44G A52U, 0.975; as for U44A A52U, 0.969.
Consider U44G U69A, for which the self-cleavage turned out to be 1.01.
Regarding U44G U69C, the self-cleavage amounted to 1.04.
The result for U43A G47A reads 0.972; that for U43A G47C, 0.954.
The result for U43A G47U reads 0.987; that for A42U U67A, 0.95; that for A42U U67G, 0.951.
The result for U44A U49A reads 1.02; that for U44A U49G, 0.993.
Regarding U44G U61G, the self-cleavage was 0.82.
On to U44G U61C, for which the self-cleavage amounted to 0.649.
The result for U43C C57A reads 0.298.
The result for U43C C57G reads 0.308; that for U43C C45U, 1.01.
As for U43A G58A, the figure is 0.929; as for U43A G58U, 0.946.
U44G C66G: the self-cleavage stood at 0.707.
The result for U44G C66U reads 0.986; that for U43C U67G, 1.01; that for U43C U67A, 0.98.
Turning to U43C U67C, the self-cleavage is 0.969.
